23 substances from publication PMC3347801 can be followed below.

For the test, the target named is human CD81 large extracellular loop fused to glutathione S-transferase (UniProt P60033). Put plainly: CD81 binding assay (immobilized GST-CD81 LEL capture of E1E2 from cell lysate, detection with anti-E2 serum R646). To be noted: lysate concentration normalized for reactivity with AP33 and ALP98 mAbs in a GNA ELISA; mock signal subtracted; triplicate; parent: est. 100; read off a plot. A general note: An ELISA detects its analyte on a solid surface through an enzyme-linked reagent.
Sequence of UniProt P60033 (P60033 113-201): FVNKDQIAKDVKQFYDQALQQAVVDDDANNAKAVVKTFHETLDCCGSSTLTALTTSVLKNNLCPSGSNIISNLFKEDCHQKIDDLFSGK

Consider “HCV envelope glycoprotein E1, wild type (genotype 1a strain H77c) (from UniProt P27958) in218 (VFKHD inserted after D218)”, for which the percent of parent is 93 % of WT.

Consider “HCV envelope glycoprotein E1, wild type (genotype 1a strain H77c) (from UniProt P27958) in263 (CLNID inserted after D263)”, for which the percent of parent is 93 % of WT.

With “HCV envelope glycoprotein E1, wild type (genotype 1a strain H77c) (from UniProt P27958) in324 (FKQMM inserted after M324)”, the percent of parent is 88 % of WT.

“HCV envelope glycoprotein E1, wild type (genotype 1a strain H77c) (from UniProt P27958) in341 (LFKHP inserted after P341)”: the percent of parent was 100 % of WT.

On to “HCV envelope glycoprotein E1, wild type (genotype 1a strain H77c) (from UniProt P27958) in343 (CLNKA inserted after A343)”, for which the percent of parent was 66 % of WT.

As for “HCV envelope glycoprotein E2, wild type (genotype 1a strain H77c) (from UniProt P27958) in413 (MFKQL inserted after L413)”, the percent of parent is 72 % of WT.

Turning to “HCV envelope glycoprotein E2, wild type (genotype 1a strain H77c) (from UniProt P27958) in422 (MFKHI inserted after I422)”, the percent of parent is 22 % of WT.

With “HCV envelope glycoprotein E2, wild type (genotype 1a strain H77c) (from UniProt P27958) in424 (CLNNS inserted after S424)”, the percent of parent is 25 % of WT.

For “HCV envelope glycoprotein E2, wild type (genotype 1a strain H77c) (from UniProt P27958) in531 (MFKHA inserted after A531)”, the percent of parent was 18 % of WT.

For “HCV envelope glycoprotein E2, wild type (genotype 1a strain H77c) (from UniProt P27958) in533 (CLNND inserted after D533)”, the percent of parent was 19 % of WT.

In the case of “HCV envelope glycoprotein E2, wild type (genotype 1a strain H77c) (from UniProt P27958) in540 (CLNIN inserted after N540)”, the percent of parent is 59 % of WT.

As to “HCV envelope glycoprotein E2, wild type (genotype 1a strain H77c) (from UniProt P27958) in549 (CLNNW inserted after W549)”, the percent of parent is 45 % of WT.

Regarding “HCV envelope glycoprotein E2, wild type (genotype 1a strain H77c) (from UniProt P27958) in573 (CLNRG inserted after G573)”, the percent of parent was 98 % of WT.

As to “HCV envelope glycoprotein E2, wild type (genotype 1a strain H77c) (from UniProt P27958) in587 (CLNIR inserted after R587)”, the percent of parent was 83 % of WT.

As to “HCV envelope glycoprotein E2, wild type (genotype 1a strain H77c) (from UniProt P27958) in611 (LFKHY inserted after Y611)”, the percent of parent was 34 % of WT.

On to “HCV envelope glycoprotein E2, wild type (genotype 1a strain H77c) (from UniProt P27958) in614 (LFKHR inserted after R614)”, for which the percent of parent is 25 % of WT.

“HCV envelope glycoprotein E2, wild type (genotype 1a strain H77c) (from UniProt P27958) in620 (CLNTC inserted after C620)”: the percent of parent is 23 % of WT.

Consider “HCV envelope glycoprotein E2, wild type (genotype 1a strain H77c) (from UniProt P27958) in630 (CLNIR inserted after R630)”, for which the percent of parent was 33 % of WT.

“HCV envelope glycoprotein E2, wild type (genotype 1a strain H77c) (from UniProt P27958) in682 (LFKHL inserted after L682)”: the percent of parent was 83 % of WT.

Turning to “HCV envelope glycoprotein E2, wild type (genotype 1a strain H77c) (from UniProt P27958) in692 (LFKHL inserted after L692)”, the percent of parent is 82 % of WT.

For the substance “HCV envelope glycoprotein E2, wild type (genotype 1a strain H77c) (from UniProt P27958) in726 (FKHLL inserted after L726)”, the percent of parent is 72 % of WT.

Consider “HCV envelope glycoprotein E2, wild type (genotype 1a strain H77c) (from UniProt P27958) in732 (CLNIC inserted after C732)”, for which the percent of parent was 77 % of WT.

Turning to “HCV envelope glycoprotein E2, wild type (genotype 1a strain H77c) (from UniProt P27958) in734 (CLNTC inserted after C734)”, the percent of parent is 96 % of WT.
